In the DeepSol protein solubility set:

test: soluble on expression in E. coli; label from the status in PepcDB or PDB records

| Sequence | soluble on expression in E. coli |
| --- | --- |
| MKEFWVWVEPFDRKIVSVALEAGANAVVIPEKGRVEEVKKVGRITVIAPDGDLKLGEDVVYVLIKGKEDEERAAKYPPNVKVIVETTDWTVIPLENLIAQREELYAVVKNAQEAEVALQTLEKGVKGVVLKSRDINEIKKVGQIVSEHEEKLELVTIKITKILPLGLGDRVCVDTISLLHRGEGMLVGNSSGGMFLVHAETEENPYVAARPFRVNAGAVHMYIRVPNNRTKYLCELKAGDKVMVYDYKGRGRVTYVGRAKVERRPMLLIEGRYENKKLSCILQNAETIRLTKPDGTPISVSELKEGDEVLGYVEEAGRHFGMKVEETIIEKLEHHHHHH | soluble |
| MNDTKITGGDLYDLWRVANINMPNVQAVYADACNVIHEINVANEDKFGRAHPGWAALGQIYEQCLFLTEGSLFSVAHYIDKAVKEFKEVDAEAARDLEAIFKNPNDHNPDDELTGDEKPKDVEVPNWWND | not soluble |
| MISNKRRPKIKIWNKEQMALYLKAIKKDRLYAAFVTDSKSGLRKSELLALRWSDIDFSTGLTKIERGWVRSPKGTLYLSDLKSENSERTLVFSTDLLKVLLEHKSRQDEEKKTAGKNYIDNGLVFCREDGSYINPSTFTRRHYDLTAKAKLPRISVHALRHSISTALLESGKVDLKQIQEMLGHKDISTTGNYYTDVLERMKQKTSELIDNLIQTELEHHHHHH | not soluble |
| MKTLNNTHIGQIYYIHKIIGKNQAKLRDLGMISDKKITLISTDGENAIVKIDETRLALSSEFLEQIFVKEERSSEDIIGLAHLQVGQTGVVRMIDATSDIRRRLMDMGITRGTSVHLQKLAPLGDPLELRLRGYSLSLRKTDAEKIKVVLERLEHHHHHH | soluble |
| MKNNIRFDLSDYLIHFFRDVNLETGSHIYLPEHCGFNNQHHACFIDAKYLLRLSLRSHKIFSSWSYRNGQRTVYGDSPVVCFTDMPIAAYLETGVRRLERNEKIGLYAIVLPKEQMFNYGARPVIYGLDQHNNARCSQGRNGERILDETALPLIEQYRYVTYVPGKIDWTHEREWRWPYRGDINNFLNHIKEYGIPENIESTPGFDFRSSEISGAGIIVPFAEDIPTVAHDILTLIDRGVIGRNTFKFIIAVESLQSWTQLSEPGALLSCINDNTFEFESFFDLSASKVKNYADSINDYVSELYSKKDFLNDSYAMEFGNAWVWIHDNQSQVVRALLQAGMIKVNKEGRYLLDVNLASVDWPLRRKEAFASHVAGWLKHRFDIEAGRYSVRGKDDYDAIPSYETPLKDQHPFYNHTVNVDW | not soluble |
| MARRGNKAIRATVSMKIALSEPLLVLVNNYVKALRFTLFWLKENVPNPEEKGVLSKVHEALYEKLREEYNLPSKVAEDCYREALATYKGWYNNPRRGRFPRVYRPTVWLTPRASYNVDFEAMTVRIVSVGELSILGYPRNLKEYMGWKMKEARLVIRDDKAFLKVVFEKEEQKVEPKESIAVDINMAEVVVGKDDKNYVRIPTRLEEVHHWKSLAERLLKKYPRRWRENKRILYRVRSFHLKARRIMEDFARKVGKWVVDVAKRMGVNVIKLESLKNLIKSVEKLSKEFRDKLYLMQYRRLQYWISWQAKKRGMTVEFVNPSYSSVSCPKCGKRMVEVSHRWFKCSCGYENDRDVIAIMNLNGRGSLTLSTAPQMRDVNPNRLEHHHHHH | not soluble |
| MGSDKIHHHHHHVSSLSFNFAPDFRPLAARMRPRSIAEYIGQAHLLGEGQPLRKALEAGRAHSMMLWGPPGTGKTTLAELIAQYSNAHVERISAVTSGVKEIRAAIEQAKAIAESRGQRTLLFVDEVHRFNKSQQDAFLPFIEDGTVIFIGATTENPSFEINNALLSRARVYLIKRLSNNEIAHIVTQALADTERGLGLRQLEMPESVLIKLAQLCDGDARKALNLLELMSDMVSDNDTFTLEMLVQVAGHQVAGFDKNGDQFYDLISAVHKSIRGSAPDAALYWYCRILEGGGDPLYVARRLLAIASEDVGNADPAAMTIALNAWDCFHRVGPAEGERAIAQAIVYLASAPKSNAVYTAFKAARALARETGQESVPHHLRNAPTQLMKEIGMGEGYRYAHDEPNAYASGENYFPESLKTAQFYFPTERGFEKRIKDKLIQLTQLDQVSENKRYD | not soluble |
| GPGSMIAILFGFTLGTAVGACNRAHYSSYGSSVYIAPLPSNSHNSLAFMDIARYRAGLFTTHQSVCGRVVIELFDSISPVSTTNFRGLCQGKHGTSGTGHKLCYSGTRLLPNECFIRGGDVTFGSAAGGWSIYGRSFREMAKGSSSSSRSSDVKGKGLVYAVGANAQWGSEFLITVDGFTPGEDHILLGQVVEGYDVLQRLQQQSLLPHAKRFIHYRILKAGVLKEAETPNYGKGSAFLRF | not soluble |
| MKILAIINPISGIGSKSNIPSLIADVFAHDPHELFITYSQRAGHARELAAQAVEKHYDCVIAVGGDGTVNEIAQSLRYTDVVLGIVPKGSGNGLARALKLPLTVGKALEVIRAGHVRTIDCCEADSRPFFCTCGLGFDAEVSKKFAQAGSRGPITYARTMIESYLQNEPKEYKLTIDGKSFEEKAFLVTCANAPQYGNNAYIAPLADLEDGKMDVVIIRPFNPLEAPQLALQLFTKRINSNSNLDTYKAENLIIERETEGVMHLDGDPVMFGKRIEIRTYGRSLKVFATETYT | not soluble |
| MSLTRRATSLLPPNATALERRLADTNARISDIPVDIGALMDPDAIPLRFLPWLAWHLGVETWKDYWPEQVKRARVKAAIRIARKKGTAAAVREVCASFGANVAMREWFEKTPKGRPGTFEILMTVGARDGIPATAEYVADIIAEVDRAKRGTAHYTFTQGFGATGTQRIGAGARVAVYRRLSLTDIEGHHHHHH | not soluble |
| MSLTALQQMTVLFVDDEEIAREQMKMVLSSFCKNTICVGSADQALAALQEHHPDIVLTDIRMPGLSGIELLNAVKQKDASVAVVIVSAHSESEYLLDAFRYKADGYLLKPFNFHEMLELLSDIATQKEAASSERKQGPDNRDFLLKILDTLGGRRAEIMEYVINHLDADNLFHGTYDEVAEALSASKPTVVATFQIMLEKNVLTRLKYGTYRMNVDATEGHHHHHH | soluble |
| GPGSMSDDTRYMYPARKAHAMDLGSSLNPEGDQKQTWGSVASVADAMSPTAEIKPSAPQVTHFGTGLGMQSSTGDPTLQEADSDGDKTEAVNEFDLAAYSKEDLTQTLHKRIMSRMFSAFDVTQVGYLDINKLKELCVYVGRNMSQEASEKMFDELKGIDGHITFDVFWNWWTTYPDTKMTKDTFSLVSADFSVPYHQQQLKIKDEGEIFTPSYRVKYYFKDMETGLRRRVSPWHDVPLYVRDPVRTKPENIRANRYNFICEIPKWTRAKFEIATGEPFNPIKQDIKNGVPRFYKHGDMMWNYGAFPQTWESTEVIFEDGVSGDNDPIDGVEIGMRQMRVGEIHPVRILGVLGMIDDGQMDWKVICMSVNDPVARFIKDIDDIPKFLPGCLDALREWFRVYKICQGGVENKFAFNGEYKDKTYAMKVVDESHYMWENLRKIKKKEEV | soluble |
| GPGSMNLGHAAASSIVVKVAELAKKAFYRLKISSAYSSKLTEAVGTALMSADPEVPVDPNRRSGGHVIRNMIYQHDSSHNIEIVTGWKDQGTREYNQQIAPPAKLDLSPKHPCYPLNEQLVRCSLECPMEMKLAGRIASCNSERKNLMVCLTKNKSWKEEPASAWYKFF | not soluble |
| MAQYKGAASEAGRAMHLMKKREKQREQMEQMKQRIAEENIMKSNIDKKFSAHYDAVEAELKSSTVGLVTLNDMKAKQEALVKEREKQLAKKEQSKELQMKLEKLREKERKKEAKRKISSLSFTLEEEEEGGEEEEEAAMYEEEMEREEITTKKRKLGKNPDVDTSFLPDRDREEEENRLREELRQEWEAKQEKIKSEEIEITFSYWDGSGHRRTVKMRKGNTMQQFLQKALEILRKDFSELRSAGVEQLMYIKEDLIIPHHHSFYDFIVTKARGKSGPLFNFDVHDDVRLLSDATVEKDESHAGKVVLRSWYEKNKHIFPASRWEPYDPEKKWDKYTIR | soluble |
| LQYQPNKLARALTSSGFDAIMVISTRSTKTTAGNPFFSEVLHAITAKAEEEGFDVILQTSHNPAEDLQKCESKIKQKMIKGIIMLSSPADESFFAQLDKYDIPVVVIGKVEGQYAHVYSVDTDNFGDSIALTDALIESGHQNIACLHAPLDVHVSVDRVNGYKQSLAAHNIAVRDEWIVDGGYTHETALKAARQLLSQSPLPEAVFATDSLKLMSIYRAAAEKNIAIPQQLAVVGYSNETLSFILTPAPGGIDVPTQELGQQSCELLFRLISGKPSPQNITVATHMTLK | soluble |
| TPAQLISIAVTPINPSVAKGLIRQFKATGTYTDHSVQDVTALATWSSSNPGKAMVNNVTGSVTTVATGNTNIKATIDSISGSSVLNVTPALLTSIEITPTINSITHGLTKQFKATGIFSDKSTQNLTQLVTWISSDPSKIEIENTSGKKGIATASKLGSSNIKAVYKFIQSSPIPITVTDLKLKSITISPSSSSIAKGLTQQFKAIGTFIDGSEQEITNLVTWYSSKSDVAPINNAANAKGLATALSIGSSNISAIYNSISSNKINFNVSAATLDSIKINPVNNNIAKGLTQQYTALGVYSDSTIQDISDSVTWSSSNSDSISISNSTETKGKATALQIGNSKITATYNSISENIDITVSAATL | not soluble |
| SNAMKEALATGSEAWWRTKTGPEWIREKDGNYRVTFWWRDPQGNETHSPIRRVWVYITGVTDHHQNAQPQTMARIAGTDVWRWSTALSANWRGSYCFIPTERDDVFAAFAPGETPDRNVLREGWRQLLPQAIADPLNSQSWRGGRGHAVSALEMPDAPLQPGWDRPETPYSPPLMMQWHSERLGNSRRVWILTTGDEAPEERPLAILLDGQFWAENMPVWPALASLTHQRLLPGAVYLLIDAIDTQHRSQELPCNADFWLAVQQELLPQVRAVTPFSDDAGRTVVAGQSFGGLSALYAGLNWPTRFGCVLSQSGSFWWPHRITPPEGEVITRLKTGALCARGLRIVLEAGVREPIVFQANQALYAQLNTSQQSIFWRQVDGGHDALCWRGGLTQGLMLLWQPLIDTL | soluble |
| MKLHEHQAKEIFAKYGIPVPEGKVAFSLKEAKEVAEELGEFPLVVKAQIHCGGRGKAGGVKIVKDMDELEKAVESLLGKVLKTFQCPDGKPVNRVLIEKATNIDKEYYLAITLDRSKSKPVIMASAAGGMEIEEIVKENPEAIIIETIDPELGLMPYQARELAFKLNLPVKEFASIALKLYQIYSDLDASLVEINPLVLTKEGNLIALDAKLDIDDNALFRHKDLEEMEDETQLPQLEVEAKKYGLNYIKLNGNIGCMVNGAGLAMATMDIIKLAGGEPANFLDVGGGANVEQIANAFRILMADPDVKAVFINIFGGILRVDRLAQGLIEASKMVELRVPIVARLEGTNVEEGKRMLQESGLNFIIAEDMWDGAKKAVEIANKQS | soluble |
| MVKAGKKVKGASKVRENETEEEKKIRLEMEALAADEAERKAQEAARVALRERQLREQRYAHLNGIKIHNQWRKIMRMAKVEELRREIEILSQNHEREVDRKDAIMQMLDRDLEEAEEQYSLAVRSHMLVVDNLLDLQYQRMRALEAEFAADLKALEDEFETERTEIVNAHTRQRKDMGDMIAAMEGEFADAEAELRQEYEAQREEIKNRNSEEYNVLKIQLEGIIEELEKSFELAHRAYLESTEHRTNTFRTLTKDDAKAALKIERQMRKLVRLQEALQHWRTKIATNGREWEERNRALRNEKEIMARHYAKLKSSMDAFRAGQAERLKQLSLASSGAMETLRGKLAVAENVLKLAELARKYETEQEKVLPFWNPAQAVPSGEQGDEEAAAQAEAEAAALEPSVAELGELGLRASMPEDSSKEAPGPSKSSAGPGKPKFSSYGLDPSSGSEVDEWDYLNCFFRRYNKALLDKTAIDKEKSRLERENADLRSILKQYLDGISVNDDVLNNPVNPLLVVNNRLQITLTERNKARAAAMAQRAAAATGAGLSVTGQGAGGGGQKQLVEVQVVSRVS | not soluble |
